Results as given in article PMC10404681, “Intrinsic catalytic properties of histone H3 lysine-9 methyltransferases preserve monomethylation levels under low S-adenosylmethionine” (The Journal of Biological Chemistry, 2023).
*: point of attachment. 5FAM = O=C1OC2(c3ccc(O)cc3Oc3cc(O)ccc32)c2ccc(C(=O)*)cc21

T1: H. sapiens EHMT1 catalytic subunit (amino acids 982 to 1266) (H. sapiens, UniProt Q9H9B1 982-1266)
T1 construct: EHMT1 (G9a-like protein, KMT1D), human, catalytic subunit, amino acids 982 to 1266; UniProt entry Q9H9B1 is printed for human EHMT1; Plasmid from Addgene (gift of Cheryl Arrowsmith); The tag is surmised from the nickel column purification; also called G9a-like protein; GLP; source: Rosetta E. coli, purified (HisTrap FF nickel column, dialysis)
T1 sequence (looked up): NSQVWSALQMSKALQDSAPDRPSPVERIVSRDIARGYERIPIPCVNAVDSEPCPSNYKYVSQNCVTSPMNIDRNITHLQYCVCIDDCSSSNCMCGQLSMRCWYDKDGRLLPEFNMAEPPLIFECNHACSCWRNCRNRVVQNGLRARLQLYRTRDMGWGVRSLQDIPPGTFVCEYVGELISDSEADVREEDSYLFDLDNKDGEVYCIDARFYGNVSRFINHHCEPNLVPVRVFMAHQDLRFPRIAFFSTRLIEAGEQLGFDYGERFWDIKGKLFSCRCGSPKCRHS

T2: H. sapiens EHMT2 catalytic subunit (amino acids 913 to 1193) (H. sapiens, UniProt Q96KQ7 913-1193)
T2 construct: EHMT2 (G9a, KMT1C), human, catalytic subunit, amino acids 913 to 1193; Plasmid provided by the laboratory of Peter W. Lewis; The tag is surmised from the nickel column purification; also called G9a; KMT1C; source: Rosetta E. coli, purified (HisTrap FF nickel column, dialysis)
T2 sequence (looked up): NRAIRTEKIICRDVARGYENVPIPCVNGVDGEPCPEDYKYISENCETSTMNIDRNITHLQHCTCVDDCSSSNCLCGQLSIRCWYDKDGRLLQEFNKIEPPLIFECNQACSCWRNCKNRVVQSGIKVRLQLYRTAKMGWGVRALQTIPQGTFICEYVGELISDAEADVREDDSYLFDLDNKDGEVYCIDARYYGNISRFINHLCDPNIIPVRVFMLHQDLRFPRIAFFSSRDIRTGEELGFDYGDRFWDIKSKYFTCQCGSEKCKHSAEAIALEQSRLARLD

T3: SUV39H1, full length with N-terminal maltose-binding protein (UniProt O43463 1-412)
T3 construct: SUV39H1 (KMT1A), full length; Plasmid generated for this study; The His tag is surmised from the nickel column purification; also called KMT1A; source: Rosetta E. coli, purified (HisTrap FF nickel column, dialysis)
T3 sequence (looked up): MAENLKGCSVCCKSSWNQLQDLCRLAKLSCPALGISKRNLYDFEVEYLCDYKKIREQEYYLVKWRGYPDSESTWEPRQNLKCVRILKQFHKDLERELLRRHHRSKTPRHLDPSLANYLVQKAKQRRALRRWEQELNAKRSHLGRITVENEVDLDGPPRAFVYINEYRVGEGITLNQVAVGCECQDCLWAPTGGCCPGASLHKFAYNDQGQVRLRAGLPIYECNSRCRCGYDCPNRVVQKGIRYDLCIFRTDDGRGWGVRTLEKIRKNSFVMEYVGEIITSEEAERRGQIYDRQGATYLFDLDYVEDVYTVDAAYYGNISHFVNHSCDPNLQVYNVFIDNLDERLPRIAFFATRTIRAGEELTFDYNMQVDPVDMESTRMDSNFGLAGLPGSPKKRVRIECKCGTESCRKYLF


Tests used:
Assay in all cases: fluorescence polarisation; enzyme titrated (0-10 uM, monomeric) against a fixed 20-100 nM of N-terminus 5-FAM labeled H3(1-17) peptide, with 100 uM SAH; 50 mM HEPES pH 7.9, 2 mM MgCl2, 0.5 mM DTT, 0.1 mM AEBSF, 0.01% Triton X-100, 10% glycerol; 10 min at 25 °C; one site specific binding fit
Settings in all cases: both partners purified
[1] = biological target: T1, H. sapiens EHMT1 catalytic subunit …
[2] = biological target: T2, H. sapiens EHMT2 catalytic subunit …
[3] = biological target: T3, SUV39H1, full length with N-terminal …
[4] = biological target: T4, H. sapiens SUV39H2 catalytic subunit (amino acids 162 to 410) (H. sapiens, UniProt Q9H5I1 162-410)
T4 construct: Plasmid from Addgene (gift of Cheryl Arrowsmith); The tag is surmised from the nickel column purification; also called KMT1B; source: Rosetta E. coli, purified (HisTrap FF nickel column, dialysis)
T4 sequence (Q9H5I1 162-410): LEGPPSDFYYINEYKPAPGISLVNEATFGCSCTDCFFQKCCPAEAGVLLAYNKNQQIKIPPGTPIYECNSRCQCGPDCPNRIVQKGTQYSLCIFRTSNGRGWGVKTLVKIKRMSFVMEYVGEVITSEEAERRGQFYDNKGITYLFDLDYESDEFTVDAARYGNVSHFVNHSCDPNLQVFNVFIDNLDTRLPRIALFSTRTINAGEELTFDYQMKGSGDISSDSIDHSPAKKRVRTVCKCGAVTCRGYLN

Row | Kd [1] [nM] | Kd [2] [nM] | Kd [3] [nM] | Kd [4] [nM] | Binder
1 | 74 ± 10 | 26 ± 1 | 750 ± 47 | 694 ± 98 | ARTKQTARKSTGGKAPR (peptide, UniProt P68431 2-18, looked up, 5-Carboxyfluorescein (5-FAM) on the N-terminus; monomethyl-lysine at 9, Histone H3, residues 1-17, lysine 9 monomethylated; Made on Rink-amide resin, so the C-terminus is probably an amide (surmised); also called H3K9me1; source: synthetic peptide (solid phase synthesis on Rink-amide ChemMatrix resin, C18-HPLC-purified)) [H3(1-17) K9 monomethylated peptide, N-terminus 5-FAM labeled]
2 | 29 ± 1 | 16 ± 0.4 | 499 ± 45 | 1080 ± 226 | 5FAM-ARTKQTARKSTGGKAPR-NH2 (peptide, UniProt P68431 2-18, looked up, Histone H3, residues 1-17, lysine 9 unmodified; Made on Rink-amide resin, so the C-terminus is probably an amide (surmised); Residues 1-17 are the same in H3.1, H3.2 and H3.3; also called H3K9un; source: synthetic peptide (solid phase synthesis on Rink-amide ChemMatrix resin, C18-HPLC-purified)) [H3(1-17) K9 unmodified peptide, N-terminus 5-FAM labeled]
3 | 124 ± 24 | 40 ± 3 | 479 ± 123 | 929 ± 573 | ARTKQTARKSTGGKAPR (peptide, UniProt P68431 2-18, looked up, 5-Carboxyfluorescein (5-FAM) on the N-terminus; dimethyl-lysine at 9, Histone H3, residues 1-17, lysine 9 dimethylated; Made on Rink-amide resin, so the C-terminus is probably an amide (surmised); also called H3K9me2; source: synthetic peptide (solid phase synthesis on Rink-amide ChemMatrix resin, C18-HPLC-purified)) [H3(1-17) K9 dimethylated peptide, N-terminus 5-FAM labeled]
